# Residue numbers refer to the chain shown, from its start.
# B1: 112 (protein)
# chain: LDNGLARTPTMGWLHWERFMCNLDCQEEPDSCISEKLFMEMAELMVSEGWKDAGYEYLCIDDCWMAPQRDSEGRLQADPQRFPHGIRQLANYVHSKGLKLGIYADVGNKTCAGFPGSFGYYDIDAQTFADWGVDLLKFDGCYCDSLENLADGYKHMSLALNRTGRSIVYSCEWPLYMWPFQKPNYTEIRQYCNHWRNFADIDDSWKSIKSILDWTSFNQERIVDVAGPGGWNDPDMLVIGNFGLSWNQQVTQMALWAIMAAPLFMSNDLRHISPQAKALLQDKDVIAINQDPLGKQGYQLRQGDNFEVWERPLSGLAWAVAMINRQEIGGPRSYTIAVASLGKGVACNPACFITQLLPVKRKLGFYEWTSRLRSHINPTGTVLLQLENTMQMSKDLIL
# modifications: Synthetic Polypeptide sequence of Variant No. 112 of mature Human GLA
# B2: 118 (protein)
# chain: B1 chain with I397L, L398N
# modifications: Synthetic Polypeptide sequence of Variant No. 118 of mature Human GLA
# B3: 114 (protein)
# chain: B1 chain with I397R
# modifications: Synthetic Polypeptide sequence of Variant No. 114 of mature Human GLA
# B4: 115 (protein)
# chain: B1 chain with I397T
# modifications: Synthetic Polypeptide sequence of Variant No. 115 of mature Human GLA
# B5: 34 (protein)
# chain: B1 chain with A337P, I397L
# modifications: Synthetic Polypeptide sequence of Variant No. 34 of mature Human GLA
# B6: 117 (protein)
# chain: B1 chain with I397L, L398G
# modifications: Synthetic Polypeptide sequence of Variant No. 117 of mature Human GLA
# B7: 113 (protein)
# chain: B1 chain with I397Q
# modifications: Synthetic Polypeptide sequence of Variant No. 113 of mature Human GLA
# B8: 122 (protein)
# chain: B1 chain with L44T, I397L
# modifications: Synthetic Polypeptide sequence of Variant No. 122 of mature Human GLA
# B9: 116 (protein)
# chain: B1 chain with I397L, L398E
# modifications: Synthetic Polypeptide sequence of Variant No. 116 of mature Human GLA
# B10: 119 (protein)
# chain: B1 chain with I397L, L398Q
# modifications: Synthetic Polypeptide sequence of Variant No. 119 of mature Human GLA
# B11: 121 (protein)
# chain: B1 chain with L44R, L384F, I397L
# modifications: Synthetic Polypeptide sequence of Variant No. 121 of mature Human GLA
# B12: 120 (protein)
# chain: B1 chain with I397L, L398R
# modifications: Synthetic Polypeptide sequence of Variant No. 120 of mature Human GLA
# B13: 35 (protein)
# chain: B1 chain with A339S, I397L
# modifications: Synthetic Polypeptide sequence of Variant No. 35 of mature Human GLA
# B14: 194 (protein)
# chain: B1 chain with K206R, I397L
# modifications: Synthetic Polypeptide sequence of Variant No. 194 of mature Human GLA
# Experiment: HTP-analysis of supernatants pretreated with base (MUGal hydrolysis)
# Format: biochemical
# Conditions: challenge at pH 7.1; activity of the variant/activity of WT GLA (SEQ ID NO: 5); yeast supernatant
# In short: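 GLA variants were secreted by transformed INVSc1 yeast grown 66-84 h at 30° C. Supernatants were exposed to neutral-to-basic buffers (pH 7.0-9.7) at 37° C for 1-18 h, then assayed with MUGal in acidic citrate/McIlvaine buffer, with fluorescence read after quenching.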
row,Molecule,Relative Activity of GLA Variants After Challenge at pH 7.1
1,B1,+ (+ = 0.5 to 1.5 relative activity over WT GLA (SEQ ID NO: 5))
2,B2,++ (++ = >1.5 to 2.5 relative activity over WT GLA (SEQ ID NO: 5))
3,B3,++ (++ = >1.5 to 2.5 relative activity over WT GLA (SEQ ID NO: 5))
4,B4,+++ (+++ = >2.5 relative activity over WT GLA (SEQ ID NO: 5))
5,B5,++ (++ = >1.5 to 2.5 relative activity over WT GLA (SEQ ID NO: 5))
6,B6,++ (++ = >1.5 to 2.5 relative activity over WT GLA (SEQ ID NO: 5))
7,B7,+++ (+++ = >2.5 relative activity over WT GLA (SEQ ID NO: 5))
8,B8,++ (++ = >1.5 to 2.5 relative activity over WT GLA (SEQ ID NO: 5))
9,B9,++ (++ = >1.5 to 2.5 relative activity over WT GLA (SEQ ID NO: 5))
10,B10,++ (++ = >1.5 to 2.5 relative activity over WT GLA (SEQ ID NO: 5))
11,B11,++ (++ = >1.5 to 2.5 relative activity over WT GLA (SEQ ID NO: 5))
12,B12,++ (++ = >1.5 to 2.5 relative activity over WT GLA (SEQ ID NO: 5))
13,B13,++ (++ = >1.5 to 2.5 relative activity over WT GLA (SEQ ID NO: 5))

# Same assay, conditions: challenge at pH 7.6; activity of the variant/activity of Rd2BB (SEQ ID NO: 10); yeast supernatant
row,Molecule,Relative Activity of GLA Variants After Challenge at pH 7.6
1,B14,++ (++ = 1.5 to 2.5 relative activity over Rd2BB (SEQ ID NO: 10))

# Experiment: HTP-analysis of supernatants pretreated with acid (MUGal hydrolysis)
# Format: biochemical
# Conditions: challenge at pH 4.2; activity of the variant/activity of Rd2BB (SEQ ID NO: 10); yeast supernatant
# In short: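 Yeast INVSc1 supernatant, GLA variants; acid challenge: McIlvaine pH 3.3-4.3, 37° C., 1-3 h. Assay: MUGal in McIlvaine pH 4.8 plus citrate pH 4.3, 37° C., 30-180 min, Na2CO3 stop, Ex 355/Em 448 nm.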
row,Molecule,Relative Activity of GLA Variants After Challenge at pH 4.2
1,B14,++ (++ = 1.5 to 2.5 relative activity over Rd2BB (SEQ ID NO: 10))

# Same assay, conditions: challenge at pH 4.2; activity of the variant/activity of WT GLA (SEQ ID NO: 5); yeast supernatant
row,Molecule,Relative Activity of GLA Variants After Challenge at pH 4.2
1,B1,++ (++ = >1.5 to 2.5 relative activity over WT GLA (SEQ ID NO: 5))
2,B2,++ (++ = >1.5 to 2.5 relative activity over WT GLA (SEQ ID NO: 5))
3,B3,++ (++ = >1.5 to 2.5 relative activity over WT GLA (SEQ ID NO: 5))
4,B4,++ (++ = >1.5 to 2.5 relative activity over WT GLA (SEQ ID NO: 5))
5,B5,++ (++ = >1.5 to 2.5 relative activity over WT GLA (SEQ ID NO: 5))
6,B6,++ (++ = >1.5 to 2.5 relative activity over WT GLA (SEQ ID NO: 5))
7,B7,+ (+ = 0.5 to 1.5 relative activity over WT GLA (SEQ ID NO: 5))
8,B8,++ (++ = >1.5 to 2.5 relative activity over WT GLA (SEQ ID NO: 5))
9,B9,++ (++ = >1.5 to 2.5 relative activity over WT GLA (SEQ ID NO: 5))
10,B10,++ (++ = >1.5 to 2.5 relative activity over WT GLA (SEQ ID NO: 5))
11,B11,++ (++ = >1.5 to 2.5 relative activity over WT GLA (SEQ ID NO: 5))
12,B12,++ (++ = >1.5 to 2.5 relative activity over WT GLA (SEQ ID NO: 5))
13,B13,++ (++ = >1.5 to 2.5 relative activity over WT GLA (SEQ ID NO: 5))

# Experiment: HTP-analysis of yeast culture supernatants, no challenge (MUGal hydrolysis)
# Format: biochemical
# Conditions: activity of the variant/activity of Rd2BB (SEQ ID NO: 10), yeast supernatant
# In short: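 Activity read as 4-methylumbelliferyl α-D-galactopyranoside hydrolysis: fluorescence (355/448 nm) after sodium carbonate stop, following 30-180 min at 37° C with 2 mM MUGal stock at pH 4.6–4.8. Enzyme source is unchallenged culture supernatant of INVSc1 yeast expressing GLA variants, grown 66-84 h at 30° C.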
row,Molecule,Relative Activity of GLA Variants After No Challenge (NC)
1,B14,++ (++ = 1.5 to 2.5 relative activity over Rd2BB (SEQ ID NO: 10))

# Same assay, conditions: activity of the variant/activity of WT GLA (SEQ ID NO: 5), yeast supernatant
row,Molecule,Relative Activity of GLA Variants After No Challenge (NC)
1,B1,+ (+ = 0.5 to 1.5 relative activity over WT GLA (SEQ ID NO: 5))
2,B2,++ (++ = >1.5 to 2.5 relative activity over WT GLA (SEQ ID NO: 5))
3,B3,++ (++ = >1.5 to 2.5 relative activity over WT GLA (SEQ ID NO: 5))
4,B4,++ (++ = >1.5 to 2.5 relative activity over WT GLA (SEQ ID NO: 5))
5,B5,+ (+ = 0.5 to 1.5 relative activity over WT GLA (SEQ ID NO: 5))
6,B6,++ (++ = >1.5 to 2.5 relative activity over WT GLA (SEQ ID NO: 5))
7,B7,++ (++ = >1.5 to 2.5 relative activity over WT GLA (SEQ ID NO: 5))
8,B8,++ (++ = >1.5 to 2.5 relative activity over WT GLA (SEQ ID NO: 5))
9,B9,++ (++ = >1.5 to 2.5 relative activity over WT GLA (SEQ ID NO: 5))
10,B10,++ (++ = >1.5 to 2.5 relative activity over WT GLA (SEQ ID NO: 5))
11,B11,+ (+ = 0.5 to 1.5 relative activity over WT GLA (SEQ ID NO: 5))
12,B12,++ (++ = >1.5 to 2.5 relative activity over WT GLA (SEQ ID NO: 5))
13,B13,++ (++ = >1.5 to 2.5 relative activity over WT GLA (SEQ ID NO: 5))

# From patent US11278600B2, “Human alpha-galactosidase variants” (Codexis, Inc., priority 2014, dated 2022)
